Values of other authors in PMC9437294.

Molecular target: 5-HT1A receptor C-terminus (UniProt P19327)

## Yif1B N-terminal region (from UniProt Q6PEC3)
  Kd: 37 nM
